Test results taken from publication PMC4335062, “Data-Driven Prediction and Design of bZIP Coiled-Coil Interactions” (PLoS Computational Biology, 2015).
Values joined by “and” are separate entries in the source; they are usually repeats but may differ in a detail not shown here. Equal values may be shown once. Where no end group is shown, it is not given here.

T1: ATF4 (Homo sapiens, UniProt P18848)
T1 construct: made in house
T1 sequence (P18848 278-341 limits assumed): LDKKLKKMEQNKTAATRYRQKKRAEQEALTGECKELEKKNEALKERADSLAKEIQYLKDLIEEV


Assays:
XBP1/CREBZF heterodimer = molecular target: T2, XBP1/CREBZF heterodimer (Homo sapiens, UniProt P17861); assay: Competition FRET assay; assay type: binding; settings: 23°C; 10 nM XBP1 (fluorescein) with 50 nM CREBZF (TAMRA); unlabeled design
T2 construct: made in house
Protocol: (§1) In the competition form of the assay, a FRET pair was made by mixing 10 nM of the donor-labeled peptide with a specified concentration of the acceptor-labeled peptide in 1 mM TCEP-HCl, and 20 μL of this solution was added to the wells after unlabeled design was titrated in 2-fold dilutions over the wells to a final concentration ranging from 0 to 2.5 μM. The amount of acceptor used varied for each curve, taking into account the Kd of the FRET complex in order to obtain a good lower baseline for fitting purposes. Samples were equilibrated for one hour before reading the plates; repeated reading of the plates over several hours gave no change in signal.
(§2) For the competition experiments, the IC50 was determined in MATLAB by fitting the binding data to the equation signal=a+b−a/(1+x/c)^H , where a and b are the lower and upper baselines, c is the IC50 value, x is the inhibitor concentration, and the Hill coefficient H was set to 1. Ki values were calculated as in Fu et al..

ATF4 = molecular target: T1, ATF4; assay: Competition binding assay, unlabeled design vs FITC-labeled design and TAMRA-labeled ATF4; settings: unlabeled design mixed with FITC-labeled design and TAMRA-labeled ATF4
Protocol: as §1, §2

ATF4/FOS heterodimer = molecular target: T3, ATF4/FOS heterodimer (Homo sapiens, UniProt P18848); assay: Competition FRET assay; assay type: binding; settings: 37°C; 10 nM ATF4 (fluorescein) with 200 nM FOS (TAMRA); unlabeled design
T3 construct: made in house
Protocol: as §1, §2

JUN/FOS heterodimer = molecular target: T4, JUN/FOS heterodimer (Homo sapiens, UniProt P05412); assay: Competition FRET assay; assay type: binding
T4 construct: made in house
Protocol: The amount of acceptor used varied for each curve, taking into account the Kd of the FRET complex in order to obtain a good lower baseline for fitting purposes. Samples were equilibrated for one hour before reading the plates; repeated reading of the plates over several hours gave no change in signal. For the competition experiments, the IC50 was determined in MATLAB by fitting the binding data to the equation signal=[…] , where a and b are the lower and upper baselines, c is the IC50 value, x is the inhibitor concentration, and the Hill coefficient H was set to 1. Ki values were calculated as in Fu et al..

ATF5 (human) = ATF5 (human) (UniProt Q9Y2D1); assay: FRET or BRET; direct-binding FRET in 384-well plates; rhodamine-labelled design (acceptor) titrated 0 to 1 uM into 10 nM fluorescein-labelled bZIP (donor); 150 mM KCl, 50 mM potassium phosphate pH 7.4, 0.1% Tween-20, 0.1% BSA; 4 °C
NFE2L1 [1] = molecular target: T5, NFE2L1 (Homo sapiens, UniProt Q14494); assay: as above
ATF4 (human) [2] = molecular target: ATF4 (human) (UniProt P18848); assay: as above
ATF2 (human) = ATF2 (human) (UniProt P15336); assay: as above
NFE2 (human) [3] = molecular target: NFE2 (human) (UniProt Q16621); assay: FRET or BRET; direct-binding FRET in 384-well plates; rhodamine-labelled design (acceptor) titrated 0 to 1 uM into 10 nM fluorescein-labelled bZIP (donor); 150 mM KCl, 50 mM potassium phosphate pH 7.4, 0.1% Tween-20, 0.1% BSA; 37 °C
NFE2 (human) [4] = molecular target: NFE2 (human) (UniProt Q16621); assay: FRET or BRET; direct-binding FRET in 384-well plates; rhodamine-labelled design (acceptor) titrated 0 to 1 uM into 10 nM fluorescein-labelled bZIP (donor); 150 mM KCl, 50 mM potassium phosphate pH 7.4, 0.1% Tween-20, 0.1% BSA; 23 °C
ATF4 (human) [5] = molecular target: ATF4 (human) (UniProt P18848); assay: as above
MAFF (human) = MAFF (human) (UniProt Q9ULX9); assay: as above
CREB3L1 (human) = CREB3L1 (human) (UniProt Q96BA8); assay: FRET or BRET; direct-binding FRET in 384-well plates; rhodamine-labelled design (acceptor) titrated 0 to 1 uM into 10 nM fluorescein-labelled bZIP (donor); 150 mM KCl, 50 mM potassium phosphate pH 7.4, 0.1% Tween-20, 0.1% BSA; 37 °C
CREB1 (human) = CREB1 (human) (UniProt P16220); assay: as above
NFE2L1 [6] = molecular target: T5, NFE2L1; assay: FRET or BRET; direct-binding FRET in 384-well plates; rhodamine-labelled design (acceptor) titrated 0 to 1 uM into 10 nM fluorescein-labelled bZIP (donor); 150 mM KCl, 50 mM potassium phosphate pH 7.4, 0.1% Tween-20, 0.1% BSA; 23 °C

Chain of ATF4 (human) (P18848 whole entry): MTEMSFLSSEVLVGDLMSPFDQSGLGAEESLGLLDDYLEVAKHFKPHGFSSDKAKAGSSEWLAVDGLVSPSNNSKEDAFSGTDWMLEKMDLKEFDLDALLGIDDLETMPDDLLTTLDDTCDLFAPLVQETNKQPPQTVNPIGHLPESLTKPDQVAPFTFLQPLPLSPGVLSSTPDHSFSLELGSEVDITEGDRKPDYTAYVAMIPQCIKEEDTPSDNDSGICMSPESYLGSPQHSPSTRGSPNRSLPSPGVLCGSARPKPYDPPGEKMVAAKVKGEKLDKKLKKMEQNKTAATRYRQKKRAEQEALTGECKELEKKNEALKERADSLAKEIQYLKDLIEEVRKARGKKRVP
Chain of NFE2 (human) (Q16621 whole entry): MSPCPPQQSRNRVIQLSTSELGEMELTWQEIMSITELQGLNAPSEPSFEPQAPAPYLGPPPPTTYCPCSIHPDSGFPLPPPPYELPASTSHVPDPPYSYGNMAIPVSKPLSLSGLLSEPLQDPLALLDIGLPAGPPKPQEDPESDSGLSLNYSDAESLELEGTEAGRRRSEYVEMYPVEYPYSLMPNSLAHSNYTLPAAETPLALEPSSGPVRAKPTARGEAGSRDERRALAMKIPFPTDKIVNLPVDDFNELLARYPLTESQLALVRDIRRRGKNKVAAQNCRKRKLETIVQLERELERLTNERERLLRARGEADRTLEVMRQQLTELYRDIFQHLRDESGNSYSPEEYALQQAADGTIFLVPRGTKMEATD
T5 sequence (Q14494 whole entry): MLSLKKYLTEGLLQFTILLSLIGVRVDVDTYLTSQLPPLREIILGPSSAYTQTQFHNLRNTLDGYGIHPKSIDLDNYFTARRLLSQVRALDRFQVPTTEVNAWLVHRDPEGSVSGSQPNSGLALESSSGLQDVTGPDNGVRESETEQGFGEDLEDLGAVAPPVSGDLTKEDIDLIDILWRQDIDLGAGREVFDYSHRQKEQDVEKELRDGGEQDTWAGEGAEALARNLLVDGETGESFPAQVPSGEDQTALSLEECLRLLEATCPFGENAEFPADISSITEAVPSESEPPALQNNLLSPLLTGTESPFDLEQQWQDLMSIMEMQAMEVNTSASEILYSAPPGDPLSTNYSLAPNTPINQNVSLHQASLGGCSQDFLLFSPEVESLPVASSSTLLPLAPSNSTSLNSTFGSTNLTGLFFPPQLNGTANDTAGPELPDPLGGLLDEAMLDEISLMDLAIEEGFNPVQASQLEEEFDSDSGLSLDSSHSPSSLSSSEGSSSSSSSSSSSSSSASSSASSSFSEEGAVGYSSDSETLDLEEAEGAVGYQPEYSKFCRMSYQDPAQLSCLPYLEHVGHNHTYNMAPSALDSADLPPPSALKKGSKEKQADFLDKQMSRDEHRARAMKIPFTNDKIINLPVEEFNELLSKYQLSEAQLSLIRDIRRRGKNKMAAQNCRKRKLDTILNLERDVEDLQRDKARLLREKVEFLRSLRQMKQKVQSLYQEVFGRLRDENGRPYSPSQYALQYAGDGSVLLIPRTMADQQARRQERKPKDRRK
Chain of ATF5 (human) (Q9Y2D1 whole entry): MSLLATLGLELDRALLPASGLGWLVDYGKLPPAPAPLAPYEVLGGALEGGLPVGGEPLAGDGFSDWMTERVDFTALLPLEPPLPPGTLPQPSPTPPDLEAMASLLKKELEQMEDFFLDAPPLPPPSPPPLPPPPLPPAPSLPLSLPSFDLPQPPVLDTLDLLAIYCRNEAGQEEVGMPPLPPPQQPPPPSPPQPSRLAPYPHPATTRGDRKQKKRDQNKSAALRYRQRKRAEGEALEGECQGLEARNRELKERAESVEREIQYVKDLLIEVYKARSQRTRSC
Chain of MAFF (human) (Q9ULX9 whole entry): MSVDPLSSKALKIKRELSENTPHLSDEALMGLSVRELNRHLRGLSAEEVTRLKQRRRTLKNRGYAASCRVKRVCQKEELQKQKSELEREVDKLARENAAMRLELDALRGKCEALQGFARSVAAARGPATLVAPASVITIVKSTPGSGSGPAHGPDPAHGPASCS
Chain of ATF2 (human) (P15336 whole entry): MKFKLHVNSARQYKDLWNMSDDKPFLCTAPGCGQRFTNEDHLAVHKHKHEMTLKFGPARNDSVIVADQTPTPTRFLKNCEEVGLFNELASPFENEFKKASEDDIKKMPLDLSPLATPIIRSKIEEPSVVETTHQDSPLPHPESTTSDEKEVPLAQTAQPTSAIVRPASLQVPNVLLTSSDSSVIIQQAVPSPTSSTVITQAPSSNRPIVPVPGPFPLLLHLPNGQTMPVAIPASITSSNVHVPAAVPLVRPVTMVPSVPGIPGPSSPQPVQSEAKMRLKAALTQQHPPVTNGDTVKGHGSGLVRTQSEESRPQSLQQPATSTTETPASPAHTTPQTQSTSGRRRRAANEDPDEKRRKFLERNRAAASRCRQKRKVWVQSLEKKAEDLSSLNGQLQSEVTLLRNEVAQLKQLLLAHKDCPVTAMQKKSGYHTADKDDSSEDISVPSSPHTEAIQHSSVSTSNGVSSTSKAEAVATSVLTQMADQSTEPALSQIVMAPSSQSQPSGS
Chain of CREB3L1 (human) (Q96BA8 whole entry): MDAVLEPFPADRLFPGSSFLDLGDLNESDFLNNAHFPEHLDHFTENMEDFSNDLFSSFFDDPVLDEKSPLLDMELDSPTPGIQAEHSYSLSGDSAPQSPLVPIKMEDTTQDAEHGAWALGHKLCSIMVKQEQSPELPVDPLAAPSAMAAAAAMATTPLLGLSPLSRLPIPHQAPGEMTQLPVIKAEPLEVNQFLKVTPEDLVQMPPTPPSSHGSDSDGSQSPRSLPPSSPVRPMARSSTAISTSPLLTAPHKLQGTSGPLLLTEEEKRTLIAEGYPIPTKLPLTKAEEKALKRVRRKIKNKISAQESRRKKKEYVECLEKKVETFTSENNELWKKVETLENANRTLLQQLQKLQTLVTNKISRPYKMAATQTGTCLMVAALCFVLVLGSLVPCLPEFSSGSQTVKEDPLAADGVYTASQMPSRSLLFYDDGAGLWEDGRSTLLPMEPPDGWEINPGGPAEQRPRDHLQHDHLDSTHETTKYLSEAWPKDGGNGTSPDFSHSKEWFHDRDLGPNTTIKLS
Chain of CREB1 (human) (P16220 whole entry): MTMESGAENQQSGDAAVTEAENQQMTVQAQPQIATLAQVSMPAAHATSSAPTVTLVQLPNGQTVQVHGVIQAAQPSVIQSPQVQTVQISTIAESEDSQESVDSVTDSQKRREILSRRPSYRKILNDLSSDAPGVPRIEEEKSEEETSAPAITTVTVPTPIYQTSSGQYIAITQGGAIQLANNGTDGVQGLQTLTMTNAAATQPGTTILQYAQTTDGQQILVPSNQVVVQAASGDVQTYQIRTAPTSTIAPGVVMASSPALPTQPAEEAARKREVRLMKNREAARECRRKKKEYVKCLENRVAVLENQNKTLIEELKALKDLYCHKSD

Row | Ki (ATF4) [nM] | Kd (ATF5 (human)) | Kd (NFE2L1 [1]) [nM] | Kd (ATF4 (human) [2]) [nM] | Kd (ATF2 (human)) [nM] | Kd (NFE2 (human) [3]) [nM] | Kd (NFE2 (human) [4]) [nM] | Kd (ATF4 (human) [5]) [nM] | Kd (MAFF (human)) [nM] | Molecule | further results
1 |  |  |  |  |  |  |  |  |  | EREAQLENRVAHLKEKNQELKAQNLHLKEALSEAQNRNQELKNDA [XBP1-d1] | IC50 (XBP1/CREBZF heterodimer): 136 nM
2 | 6 |  |  |  |  |  |  |  |  | KRIAYLRQRIAELRNENHVLESRIQRMEKEKDALQQDRDHLEYEL [ATF5-d1] | 
3 | 48 |  |  |  |  |  |  |  |  | NQIKTLRTRLSKLRKDNLQLEKDIANLERKAKDLRAEKEQLEYEL [ATF4-d1] | IC50 (ATF4/FOS heterodimer): 279 nM
4 |  |  |  |  |  |  |  |  |  | SIAATLEKEEANLEKMNKKLAAEIESLLKEKDKLESVLNYHE [JUN-d1] | IC50 (JUN/FOS heterodimer): 245 nM
5 |  | > 5000 nM | > 5000 | 1 | 1000 | 2920 | > 5000 | 1 | 623 | ATF4-d1 labeled at the C-terminus (designed binder, also: C59 label by assay: Rhodamine Red C2-maleimide or fluorescein-5-maleimide, solubility linker after the His6 tag; added to the C-terminus for labeling; one molecule for the rhodamine- and the fluorescein-labelled form; the assay tells which label stood there; also called ATF4-d1-Rhodamine; ATF4-d1-FITC; source: E. coli RP3098, purified (Ni-NTA under denaturing conditions, reverse-phase HPLC)) GESKEYKKGSGSNQIKTLRTRLSKLRKDNLQLEKDIANLERKAKDLRAEKEQLEYELGC | 
6 |  | 1.1 nM and 1.2 nM and 1 nM | > 5000 | 1 | > 5000 | > 5000 | > 5000 | 1 | > 5000 | ATF5-d1 labeled at the C-terminus (designed binder, not fully specified) GESKEYKKGSGSKRIAYLRQRIAELRNENHVLESRIQRMEKEKDALQQDRDHLEYELGC(Rhodamine Red C2‑maleimide) | Kd (CREB3L1 (human)): 1000 nM; Kd (CREB1 (human)): 1000 nM; Kd (NFE2L1 [6]): > 5000 nM
